{"source": "paper PMC8262869", "about": "“The DnaK/DnaJ Chaperone System Enables RNA Polymerase-DksA Complex Formation in Salmonella Experiencing Oxidative Stress” (mBio, 2021)", "binders": {"B1": {"name": "DnaJ-6×His (natural protein, Salmonella enterica serovar Typhimurium, UniProt P0A1G7 1-379, looked up)", "chain": "MAKRDYYEILGVSKTAEEREIKKAYKRLAMKYHPDRNQGDKEAEAKFKEIKEAYEVLTDAQKRAAYDQYGHAAFEQGGMGGGFGGGFNGGADFSDIFGDVFGDIFGGGRGRQRAARGADLRYNMDLTLEEAVRGVTKEIRIPTLEECDVCHGSGAKAGTQPQTCPTCHGSGQVQMRQGFFAVQQTCPHCQGRGTLIKDPCHKCHGHGRVEKSKTLSVKIPAGVDTGDRIRLAGEGEAGEHGAPAGDLYVQVQVKQHPIFEREGNNLYCEVPINFAMAALGGEIEVPTLDGRVMLKVPSETQTGKLFRMRGKGVKSVRGGAQGDLLCRVVVETPVGLSEKQKQLLKDLQESFGGPTGEKNSPRSKSFFDGVKKFFDDLTR", "notes": "DnaJ, Salmonella enterica serovar Typhimurium; full-length dnaJ in NdeI and XhoI sites of pET-22b(+); also called wild-type DnaJ protein; C-terminally 6×His-tagged DnaJ; not shown: 6×His, C-terminal, kept"}, "B2": {"name": "GST-DnaK (natural protein)", "chain": "not shown", "notes": "DnaK (Hsp70), Salmonella enterica serovar Typhimurium; dnaK cloned into BamHI and XhoI sites of pGEX-6P-1; source: E. coli BL21(DE3), purified (glutathione-Sepharose 4B)"}, "B3": {"name": "oxidized GST-DksA (natural protein)", "chain": "MQEGQNRKTSSLSILAIAGVEPYQEKPGEEYMNEAQLSHFKRILEAWRNQLRDEVDRTVTHMQDEAANFPDPVDRAAQEEEFSLELRNRDRERKLIKKIEKTLKKVEDEDFGYCESCGVEIGIRRLEARPTADLCIDCKTLAEIREKQMAG", "modifications": "cysteine residues oxidized (disulfide-bonded) by treatment with H2O2; positions not given", "notes": "DksA, Salmonella enterica serovar Typhimurium; dksA cloned into BamHI and XhoI sites of pGEX-6P-1; For the in vitro transcription assays the GST tag was removed with PreScission protease and oxidation was with 1 mM H2O2; also called oxidized DksA; source: E. coli BL21(DE3), purified (glutathione-Sepharose 4B); treated with 100 μM H2O2 for 1 h at 37°C"}}, "key": {"GST-DnaK": {"molecular_target": "B2", "assay": "pull-down; GST fusion (bait) on glutathione-Sepharose 4B beads, 50 mM Tris-HCl pH 7.5, 4°C, 2 h with C-terminally 6×His-tagged prey; wash 50 mM NaCl, elution 500 mM NaCl; anti-6×His immunoblot", "details": "both partners purified"}, "GST-DnaK T199A": {"molecular_target": "T1, GST-DnaK T199A (Salmonella enterica serovar Typhimurium, UniProt Q56073 1-638, T199A)", "T1 construct": "DnaK (Hsp70), Salmonella enterica serovar Typhimurium; point mutant of dnaK in pGEX-6P-1; also called recombinant DnaK T199A variant; source: E. coli BL21(DE3), purified (glutathione-Sepharose 4B)", "assay": "pull-down; GST fusion (bait) on glutathione-Sepharose 4B beads, 50 mM Tris-HCl pH 7.5, 4°C, 2 h with C-terminally 6×His-tagged prey; wash 50 mM NaCl, elution 500 mM NaCl; anti-6×His immunoblot", "details": "both partners purified"}, "DnaJ H33Q-6×His": {"molecular_target": "T2, DnaJ H33Q-6×His (Salmonella enterica serovar Typhimurium, UniProt P0A1G7 1-379, H33Q)", "T2 construct": "DnaJ, Salmonella enterica serovar Typhimurium; point mutant of full-length dnaJ in pET-22b(+); also called DnaJ H33Q recombinant variant; not shown: 6×His, C-terminal, kept", "assay": "pull-down; GST fusion (bait) on glutathione-Sepharose 4B beads, 50 mM Tris-HCl pH 7.5, 4°C, 2 h with C-terminally 6×His-tagged prey; wash 50 mM NaCl, elution 500 mM NaCl; anti-6×His immunoblot", "details": "both partners purified"}, "[1]": {"molecular_target": "E. coli holoenzyme RNA polymerase (E. coli, UniProt P0A7Z4 1-329; P0A8V2 1-1342)", "assay": "cell-based or functional assay"}, "DnaJ C268A-6×His": {"molecular_target": "T3, DnaJ C268A-6×His (Salmonella enterica serovar Typhimurium, UniProt P0A1G7 1-379, C268A)", "T3 construct": "DnaJ, Salmonella enterica serovar Typhimurium; point mutant of full-length dnaJ in pET-22b(+); not shown: 6×His, C-terminal, kept", "assay": "pull-down; GST fusion (bait) on glutathione-Sepharose 4B beads, 50 mM Tris-HCl pH 7.5, 4°C, 2 h with C-terminally 6×His-tagged prey; wash 50 mM NaCl, elution 500 mM NaCl; anti-6×His immunoblot", "details": "both partners purified"}, "DnaJ ΔZn1-6×His": {"molecular_target": "T4, DnaJ ΔZn1-6×His (Salmonella enterica serovar Typhimurium, UniProt P0A1G7 1-379, C147S | C150S | C200S | C203S)", "T4 construct": "DnaJ, Salmonella enterica serovar Typhimurium; also called C147S C150S C200S C203S; not shown: 6×His, C-terminal, kept", "assay": "pull-down; GST fusion (bait) on glutathione-Sepharose 4B beads, 50 mM Tris-HCl pH 7.5, 4°C, 2 h with C-terminally 6×His-tagged prey; wash 50 mM NaCl, elution 500 mM NaCl; anti-6×His immunoblot", "details": "both partners purified"}, "DnaJ C186H-6×His": {"molecular_target": "T5, DnaJ C186H-6×His (Salmonella enterica serovar Typhimurium, UniProt P0A1G7 1-379, C186H)", "T5 construct": "DnaJ, Salmonella enterica serovar Typhimurium; point mutant of full-length dnaJ in pET-22b(+); not shown: 6×His, C-terminal, kept", "assay": "pull-down; GST fusion (bait) on glutathione-Sepharose 4B beads, 50 mM Tris-HCl pH 7.5, 4°C, 2 h with C-terminally 6×His-tagged prey; wash 50 mM NaCl, elution 500 mM NaCl; anti-6×His immunoblot", "details": "both partners purified"}}}
{"binder": "B1", "values": [{"measurement": "binding result", "setting": "GST-DnaK", "result": "binds"}, {"measurement": "binding result", "setting": "GST-DnaK T199A", "result": "binds"}]}
{"binder": "B2", "values": [{"measurement": "binding result", "setting": "DnaJ H33Q-6×His", "result": "binds"}]}
{"binder": "B3", "values": [{"measurement": "livJ in vitro transcription (qRT-PCR): 5 μM oxidized DksA (GST tag removed), 5 nM RNA polymerase, 50 nM DnaJ, upon addition of 500 nM untagged DnaK", "setting": "[1]", "result": "> 10", "unit": "fold"}, {"measurement": "binding result", "setting": "DnaJ H33Q-6×His", "result": "binds"}, {"measurement": "binding result", "setting": "DnaJ C268A-6×His", "result": "binds"}, {"measurement": "binding result", "setting": "DnaJ ΔZn1-6×His", "result": "binds"}, {"measurement": "binding result", "setting": "DnaJ C186H-6×His", "result": "binds"}]}
